Measured values from the supplement of paper PMC9233669.
This sample holds only a part of the variants without activity.

Tests used:
[1] = system: biotinyl-Ile-oxazolone; experiment: self-aminoacylation, catalytic enhancement (BIO) (fold over background); higher = more active; k-Seq, kA / k0A0; sequences stand for … in GGGAAUGGAUCCACAUCUACGAAUUC…UUCACUGCAGACUUGACGAAGCUG
How it was run: (§1)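 The uncatalyzed rate is the low-activity peak of a bimodal Gaussian fit, and catalytic enhancement is median kA divided by it. The kA values came from pseudo-first-order fits, with 1000 bootstraps, of per-sequence fraction reacted measured by streptavidin capture, triplicate qPCR and Illumina sequencing. Mutagenized RNA pools with a 21-nt variable region (0.43 μM) were reacted with each biotinyl-aminoacyl-oxazolone at 2–1250 μM in 50 μL HEPES/NaCl/KCl/MgCl2/CaCl2 buffer with 5% acetonitrile, pH 6.9–7.0, for 90 minutes at room temperature.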

[2] = system: biotinyl-Met-oxazolone; experiment: self-aminoacylation, catalytic enhancement (BMO) (fold over background); higher = more active; k-Seq, kA / k0A0; sequences stand for … in GGGAAUGGAUCCACAUCUACGAAUUC…UUCACUGCAGACUUGACGAAGCUG
How it was run: as §1

[3] = system: biotinyl-Phe-oxazolone; experiment: self-aminoacylation, catalytic enhancement (BFO) (fold over background); higher = more active; k-Seq, kA / k0A0; sequences stand for … in GGGAAUGGAUCCACAUCUACGAAUUC…UUCACUGCAGACUUGACGAAGCUG
How it was run: as §1

[4] = system: biotinyl-Trp-oxazolone; experiment: self-aminoacylation, catalytic enhancement (BWO) (fold over background); higher = more active; k-Seq, kA / k0A0; sequences stand for … in GGGAAUGGAUCCACAUCUACGAAUUC…UUCACUGCAGACUUGACGAAGCUG
How it was run: as §1

[5] = system: biotinyl-Val-oxazolone; experiment: self-aminoacylation, catalytic enhancement (BVO) (fold over background); higher = more active; k-Seq, kA / k0A0; sequences stand for … in GGGAAUGGAUCCACAUCUACGAAUUC…UUCACUGCAGACUUGACGAAGCUG
How it was run: as §1

[6] = system: biotinyl-Leu-oxazolone; experiment: self-aminoacylation, catalytic enhancement (BLO) (fold over background); higher = more active; k-Seq, kA / k0A0; sequences stand for … in GGGAAUGGAUCCACAUCUACGAAUUC…UUCACUGCAGACUUGACGAAGCUG
How it was run: as §1

Row | Sequence | self-aminoacylation [1] | self-aminoacylation [2] | self-aminoacylation [3] | self-aminoacylation [4] | self-aminoacylation [5] | self-aminoacylation [6]
1 | CAAUACUUCAAGCAAUCGGUC [Fam1B.1 aminoacylation ribozyme variant] | 0.907 | 0.799 | 9.23 | 5.14 | 0.912 | 0.986
2 | CCACACUUCAAACAAUCGGUA [Fam1B.1 aminoacylation ribozyme variant] | 0.873 | 0.947 | 1.62 | 1.47 | 1.02 | 0.734
3 | CCACACUUGAAGGAAUCGGUC [Fam1B.1 aminoacylation ribozyme variant] | 1.28 | 1.39 | 1.23 | 1.71 | 1.39 | 1.55
4 | CCACACUUUCAGCAAUCGGUC [Fam1B.1 aminoacylation ribozyme variant] | 1.01 | 0.799 | 1.04 | 0.664 | 1.09 | 0.966
5 | AUUGACCUAGGUCAUAGGGUG [Fam2.2 aminoacylation ribozyme variant] | 1.58 | 1.27 | 1.72 | 1.81 | 1.46 | 1.61
6 | AAGGUUGCUAAUAGUCGCUAG [Fam3.1 aminoacylation ribozyme variant] | 1.3 | 1.03 | 1.54 | 1.27 | 1.03 | 1.19
7 | CCACACUUGAAGCAAUCGAUC [Fam1B.1 aminoacylation ribozyme variant] | 0.482 | 0.436 | 0.662 | 0.348 | 0.612 | 0.407
8 | CCUCCCUUCAAGCAAUCGGUC [Fam1B.1 aminoacylation ribozyme variant] | 1.2 | 0.881 | 13.8 | 8.87 | 1.13 | 1.17
9 | AAGUUUGUUAAUAGGCGCAAG [Fam3.1 aminoacylation ribozyme variant] | 0.767 | 0.799 | 1.05 | 0.763 | 0.652 | 0.556
10 | AUUAUCCUGGUCAUCCAGUGA [Fam2.1 aminoacylation ribozyme variant] | 2.14 | 3.69 | 11.1 | 4.26 | 2.28 | 4.27
11 | CUACUUCAAACAAUCGCUCGG [Fam1A.1 aminoacylation ribozyme variant] | 1.02 | 0.763 | 0.822 | 0.747 | 0.954 | 0.768
12 | CCACACUUCAAGUUAUCGGUC [Fam1B.1 aminoacylation ribozyme variant] | 1.09 | 1.01 | 0.799 | 1.08 | 1.06 | 1.04
13 | AUUACCCUGGUCAUCAACUGA [Fam2.1 aminoacylation ribozyme variant] | 0.789 | 0.667 | 0.556 | 0.571 | 1.13 | 0.851
14 | AUUACAAUGGUCAUCGAGUGA [Fam2.1 aminoacylation ribozyme variant] | 3.7 | 6.47 | 16.6 | 7.87 | 3.54 | 6.42
15 | ACUCACCCAGGUCAUCGGGUG [Fam2.2 aminoacylation ribozyme variant] | 4 | 4.37 | 26.2 | 4.81 | 4.51 | 5.25
16 | AUCCACCUAGGUCUUCGGGUG [Fam2.2 aminoacylation ribozyme variant] | 4.4 | 5.09 | 37.1 | 6.45 | 6.01 | 6.56
17 | AUUACCCGGGUCCUCGAGUGA [Fam2.1 aminoacylation ribozyme variant] | 3.5 | 5.42 | 47.4 | 7.11 | 3.84 | 7.78
18 | AUUCACCUAGUUCAUCGAGUG [Fam2.2 aminoacylation ribozyme variant] | 0.949 | 1.21 | 1.17 | 1.25 | 1.04 | 1.31
19 | CCACGCUUCAAGCAAUCGGUU [Fam1B.1 aminoacylation ribozyme variant] | 1.33 | 1.44 | 20 | 16.7 | 1.93 | 1.92
20 | CUACUUCAAACAACCGGGCUG [Fam1A.1 aminoacylation ribozyme variant] | 1.46 | 1.35 | 2.15 | 0.852 | 1.22 | 1.27
21 | ACGUGUGCUAAUAGUCGCAAG [Fam3.1 aminoacylation ribozyme variant] | 1.6 | 1.62 | 4.86 | 1.63 | 1.28 | 1.68
22 | AUUCCCCUAGGUCAUCGGGUG [Fam2.2 aminoacylation ribozyme variant] | 14.9 | 24.4 | 196 | 23.2 | 14.9 | 32.9
23 | AUUACCCUGGUCCUCGAGUGU [Fam2.1 aminoacylation ribozyme variant] | 1.59 | 2.78 | 2.62 | 3.02 | 1.73 | 3.22
24 | AUUACGCAGGUCAUCGAGUGA [Fam2.1 aminoacylation ribozyme variant] | 2.73 | 3.04 | 3.59 | 5.06 | 2.45 | 3.44
25 | AUUCACCUAGGUAAGCGGGUG [Fam2.2 aminoacylation ribozyme variant] | 1.9 | 2.73 | 14.3 | 2.31 | 1.48 | 2.75
26 | AUUCACCUAGGUCACCGGGCG [Fam2.2 aminoacylation ribozyme variant] | 3.96 | 3.66 | 11.3 | 4.68 | 4.43 | 4.7

Row | Sequence | self-aminoacylation [1] | self-aminoacylation [2] | self-aminoacylation [3] | self-aminoacylation [4] | self-aminoacylation [5] | self-aminoacylation [6]
27 | CCACACUUCAAGCAAUCUGUC [Fam1B.1 aminoacylation ribozyme variant] | 0.368 | 0.34 | 0.824 | 0.369 | 0.518 | 0.327
28 | AAGUUUGCUAGUAGUAGCAAG [Fam3.1 aminoacylation ribozyme variant] | 1.24 | 0.808 | 1.62 | 1.2 | 1.18 | 1
29 | CCUCACUUCAAACAAUCGGUC [Fam1B.1 aminoacylation ribozyme variant] | 1.21 | 1.51 | 93.7 | 37.3 | 1.25 | 2.35
30 | CCACUCUUCAAGAAAUCGGUC [Fam1B.1 aminoacylation ribozyme variant] | 0.932 | 0.91 | 5.4 | 4.87 | 0.871 | 0.903
31 | AUUCUCCUACGUCAUCGGGUG [Fam2.2 aminoacylation ribozyme variant] | 4.89 | 6.97 | 57.3 | 6.69 | 5.36 | 9.67
32 | AUUCACCUAGGACUUCGGGUG [Fam2.2 aminoacylation ribozyme variant] | 2.5 | 2.75 | 19.1 | 3.48 | 2.43 | 3.6
33 | AAGUUUGCUAAUAGUCGCAUG [Fam3.1 aminoacylation ribozyme variant] | 1.03 | 0.93 | 1.47 | 0.976 | 0.916 | 0.932
34 | AUUCCCCUGGUCAUCGAGUGU [Fam2.1 aminoacylation ribozyme variant] | 2.39 | 3.09 | 15.2 | 3.8 | 2.61 | 3.28
35 | AUUCUUCAAACAAUCGGUCUG [Fam1A.1 aminoacylation ribozyme variant] | 0.672 | 0.63 | 1.66 | 1.27 | 0.663 | 0.682
36 | CCACACCUGAAGCAAUCGGUC [Fam1B.1 aminoacylation ribozyme variant] | 1.01 | 0.903 | 0.952 | 0.911 | 1.18 | 0.946
37 | AAAUUUGCUACUAGUCGCAAG [Fam3.1 aminoacylation ribozyme variant] | 2.05 | 1.96 | 1.86 | 2.54 | 1.63 | 1.59
38 | AUUACCCUGGACAUCGAGCGA [Fam2.1 aminoacylation ribozyme variant] | 1.24 | 1.45 | 1.24 | 1.34 | 1.07 | 1.26
39 | AUUACCCUGGUCAUCGAGUAG [Fam2.1 aminoacylation ribozyme variant] | 2.15 | 4.51 | 13.9 | 4.18 | 2.64 | 4.67
40 | CCACAAGUCAAGCAAUCGGUC [Fam1B.1 aminoacylation ribozyme variant] | 1.64 | 1.67 | 1.15 | 1.32 | 1.54 | 1.49
41 | AAGUUUGAUAAUAGACGCAAG [Fam3.1 aminoacylation ribozyme variant] | 0.364 | 0.346 | 0.787 | 0.331 | 0.418 | 0.311
42 | CUACAUCAAACAAUCGGUCUA [Fam1A.1 aminoacylation ribozyme variant] | 0.669 | 0.802 | 1.61 | 0.755 | 0.922 | 0.58
43 | UUUACCCUGGUUAUCGAGUGA [Fam2.1 aminoacylation ribozyme variant] | 4.28 | 7.81 | 25.7 | 10.6 | 4.19 | 7.57
44 | CCACACUUCUGGCAAUCGGUC [Fam1B.1 aminoacylation ribozyme variant] | 1.23 | 1.26 | 1.18 | 0.873 | 1.49 | 1.54
45 | CUUCACCUAGGUCAUCGGGUA [Fam2.2 aminoacylation ribozyme variant] | 4.43 | 6.65 | 23.4 | 5.72 | 5.19 | 7.28
46 | CCACACUACAAGGAAUCGGUC [Fam1B.1 aminoacylation ribozyme variant] | 1.01 | 0.84 | 0.823 | 0.681 | 1.03 | 0.947
47 | AUUACCUUGGUCUUCGAGUGA [Fam2.1 aminoacylation ribozyme variant] | 3.43 | 6.13 | 32.9 | 7.78 | 4.04 | 6.52
48 | AUUCACCAAGGUCAUCGGAUG [Fam2.2 aminoacylation ribozyme variant] | 1.09 | 0.703 | 1.12 | 0.726 | 1.17 | 0.794
49 | CCACACUUCAAACAUUCGGUC [Fam1B.1 aminoacylation ribozyme variant] | 1.49 | 1.47 | 0.837 | 1.32 | 1.4 | 1.45
50 | AUCACCCUGGUCAACGAGUGA [Fam2.1 aminoacylation ribozyme variant] | 4.43 | 9.31 | 64.3 | 10.6 | 4.69 | 10.6
51 | CCAAACUUCAAGCAAUAGGUC [Fam1B.1 aminoacylation ribozyme variant] | 0.605 | 0.574 | 0.911 | 0.458 | 0.602 | 0.527
